According to paper PMC4517790 (PLoS ONE, 2015):

Key:
AlrTt [1] = target: T1, AlrTt (Caldanaerobacter subterraneus, UniProt Q8RAK6); assay: PLP content by absorption at […] nm; type: binding; settings: active site, internal aldimine with Lys40 (covalent); in the crystal only the phosphate group of PLP was seen
T1 construct: gene alr1; full length, pET-28a, N- and C-terminal 6xHis tags, E. coli BL21(DE3); 388 residues; homodimer in crystal, monomer in size exclusion

[2] = target: Alanine racemase AlrTt (MBAlr1) from Thermoanaerobacter tengcongensis MB4, wild type (Thermoanaerobacter tengcongensis MB4) (UniProt Q8RAK6); assay: crystal structure; AlrTt (10 mg/mL) incubated with L-Ala and PLP at 1:1.5:1.5 molar ratio, hanging drop, 22% PEG 4000, 0.1 M Bis-Tris pH 7.0, 289 K; 2.7 Å; homodimer in one asymmetric unit
AlrTt [3] = target: T1, AlrTt; assay: X-ray crystal structure, […] Å; type: binding; settings: co-crystallized with L-Ala and PLP, pH 7.0; active site
purified protein [4] = substrate: C[C@@H](N)C(=O)O; assay: purified protein; settings: D-Ala to L-Ala; conditions of the kinetic assay not given
purified protein [5] = substrate: C[C@H](N)C(=O)O; assay: purified protein; settings: L-Ala to D-Ala; conditions of the kinetic assay not given

T1 sequence (Q8RAK6 whole entry): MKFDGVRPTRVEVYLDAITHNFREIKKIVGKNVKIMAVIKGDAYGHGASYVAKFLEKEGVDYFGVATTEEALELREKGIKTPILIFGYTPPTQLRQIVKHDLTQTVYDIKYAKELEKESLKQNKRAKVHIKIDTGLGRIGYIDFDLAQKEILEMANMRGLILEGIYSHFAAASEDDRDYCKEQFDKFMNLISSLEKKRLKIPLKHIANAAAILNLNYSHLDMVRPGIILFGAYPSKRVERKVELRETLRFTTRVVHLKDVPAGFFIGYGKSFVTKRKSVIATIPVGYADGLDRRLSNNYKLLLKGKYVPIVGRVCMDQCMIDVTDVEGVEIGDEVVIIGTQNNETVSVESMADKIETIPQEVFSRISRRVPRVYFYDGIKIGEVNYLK

Molecule: Cc1ncc(COP(=O)(O)O)c(C=O)c1O [PLP]
- PLP content (AlrTt [1]): 1.44 ± 0.01 mol PLP per mol enzyme

Molecule: Alanine racemase AlrTt (MBAlr1) from Thermoanaerobacter tengcongensis MB4, wild type (from UniProt Q8RAK6 1-388) (enzyme)
- stoichiometry N [2]: 2

Molecule: C[C@H](N)C(=O)O [L-Ala]
- X-ray crystal structure, 2.7 Å (AlrTt [3]): One L-Ala molecule is positioned in the active site pocket by hydrogen bonds

B1: AlrTt (Caldanaerobacter subterraneus subsp. tengcongensis MB4; Q360Y) (protein)
chain: MKFDGVRPTRVEVYLDAITHNFREIKKIVGKNVKIMAVIKGDAYGHGASYVAKFLEKEGVDYFGVATTEEALELREKGIKTPILIFGYTPPTQLRQIVKHDLTQTVYDIKYAKELEKESLKQNKRAKVHIKIDTGLGRIGYIDFDLAQKEILEMANMRGLILEGIYSHFAAASEDDRDYCKEQFDKFMNLISSLEKKRLKIPLKHIANAAAILNLNYSHLDMVRPGIILFGAYPSKRVERKVELRETLRFTTRVVHLKDVPAGFFIGYGKSFVTKRKSVIATIPVGYADGLDRRLSNNYKLLLKGKYVPIVGRVCMDQCMIDVTDVEGVEIGDEVVIIGTQNNETVSVESMADKIETIPYEVFSRISRRVPRVYFYDGIKIGEVNYLK
- Km (purified protein [4]): 52.03 ± 5.41 mM
- kcat (purified protein [4]): 251 s⁻¹
- kcat/Km (purified protein [4]): 4830 M⁻¹ s⁻¹
- Km (purified protein [5]): 87.81 ± 8.72 mM
- kcat (purified protein [5]): 431 s⁻¹
- kcat/Km (purified protein [5]): 4910 M⁻¹ s⁻¹

B2: AlrTt (Caldanaerobacter subterraneus subsp. tengcongensis MB4; Q360Y/S173D) (protein)
chain: MKFDGVRPTRVEVYLDAITHNFREIKKIVGKNVKIMAVIKGDAYGHGASYVAKFLEKEGVDYFGVATTEEALELREKGIKTPILIFGYTPPTQLRQIVKHDLTQTVYDIKYAKELEKESLKQNKRAKVHIKIDTGLGRIGYIDFDLAQKEILEMANMRGLILEGIYSHFAAADEDDRDYCKEQFDKFMNLISSLEKKRLKIPLKHIANAAAILNLNYSHLDMVRPGIILFGAYPSKRVERKVELRETLRFTTRVVHLKDVPAGFFIGYGKSFVTKRKSVIATIPVGYADGLDRRLSNNYKLLLKGKYVPIVGRVCMDQCMIDVTDVEGVEIGDEVVIIGTQNNETVSVESMADKIETIPYEVFSRISRRVPRVYFYDGIKIGEVNYLK
- Km (purified protein [4]): 58.48 ± 7.29 mM
- kcat (purified protein [4]): 133 s⁻¹
- kcat/Km (purified protein [4]): 2270 M⁻¹ s⁻¹
- Km (purified protein [5]): 83.10 ± 8.78 mM
- kcat (purified protein [5]): 246 s⁻¹
- kcat/Km (purified protein [5]): 2970 M⁻¹ s⁻¹
